{
  "source": "paper PMC12747932",
  "about": "“Crystal structures of Kif2A complexed with WDR5 reveal the structural plasticity of WIN-S7 sites” (Acta Biochimica et Biophysica Sinica, 2025)",
  "binders": {"B1": {"name": "Kif2A 114–122 peptide (peptide)", "peptide": "GSARARPSQ", "notes": "also called wild-type Kif2A; source: synthetic peptide (GenScript)"}, "B2": {"name": "Kif2A 114–122 (S121G) peptide (peptide)", "peptide": "GSARARPGQ", "notes": "also called Kif2A^S121G; source: synthetic peptide (GenScript)"}, "B3": {"name": "Kif2A 114–120 peptide (peptide)", "peptide": "GSARARP", "notes": "also called truncated Kif2A; source: synthetic peptide (GenScript)"}},
  "experiment_in_all_cases": "ITC; peptide (approximately 1 mM) titrated into protein (0.05 mM), 20°C, Buffer E (20 mM Tris-HCl, 200 mM NaCl, pH 7.5), single binding site model, duplicate",
  "settings_in_all_cases": "both partners purified",
  "key": {"[1]": {"target": "human WDR5 seven tandem WD-40 domain (residues 24–334) (human, UniProt P61964 24-334)"}, "[2]": {"target": "WDR5 Y191F variant (residues 24–334) (human, UniProt P61964 24-334, Y191F)"}, "[3]": {"target": "human WDR5 seven tandem WD-40 domain (residues 24–334) (human, UniProt P61964 24-334)", "remark": "listed apart in the source"}},
  "data": [
    {"binder": "B1", "values": [
      {"measurement": "Kd", "setting": "[1]", "value": 780, "unit": "nM"},
      {"measurement": "dH", "setting": "[1]", "value": "-15.7 ± 0.13", "unit": "kcal/mol"},
      {"measurement": "stoichiometry N", "setting": "[1]", "value": 0.91},
      {"measurement": "Kd", "setting": "[2]", "value": 960, "unit": "nM"},
      {"measurement": "dH", "setting": "[2]", "value": "-9 ± 0.08", "unit": "kcal/mol"},
      {"measurement": "stoichiometry N", "setting": "[2]", "value": 1.27}
    ]},
    {"binder": "B2", "values": [
      {"measurement": "Kd", "setting": "[1]", "value": 3720, "unit": "nM"},
      {"measurement": "dH", "setting": "[1]", "value": "-10.6 ± 0.14", "unit": "kcal/mol"},
      {"measurement": "stoichiometry N", "setting": "[1]", "value": 0.94}
    ]},
    {"binder": "GSARARPAQ", "note": "[Kif2A S121A peptide]", "values": [
      {"measurement": "Kd", "setting": "[3]", "value": 2160, "unit": "nM"},
      {"measurement": "dH", "setting": "[3]", "value": "-13 ± 0.12", "unit": "kcal/mol"},
      {"measurement": "stoichiometry N", "setting": "[3]", "value": 0.97}
    ]},
    {"binder": "B3", "values": [
      {"measurement": "Kd", "setting": "[1]", "value": 6710, "unit": "nM"},
      {"measurement": "dH", "setting": "[1]", "value": "-9.2 ± 0.11", "unit": "kcal/mol"},
      {"measurement": "stoichiometry N", "setting": "[1]", "value": 1.19}
    ]}
  ]
}
